According to patent US20190262327A1, “COMBINATION OF A BACE INHIBITOR AND AN ANTIBODY OR ANTIGEN-BINDING FRAGMENT FOR THE TREATMENT OF A DISORDER ASSOCIATED WITH THE ACCUMULATION OF AMYLOID BETA” (ASTRAZENECA AB, priority 2016, published 2019):
“Also recorded” adds a separate entry of the source.

What was measured:
Amyloid beta plaques = assay: In vivo binding to Amyloid beta plaques in aged Tg2576 mice (immunohistochemistry); parameters: species or system mouse; details: 168 hours after single i.v. dose of 10 or 30 mg/kg
Experimental: Abet0380-GL IgG1-TM was tested for its ability to bind to Amyloid beta plaques in aged Tg2576 mice after a single peripheral dose. Animal experimentations were performed in accordance with relevant guidelines and regulations provided by the Swedish Board of Agriculture. The ethical permission was provided by an ethical board specialized in animal experimentations: the Stockholm Sodra Animal Research Ethical Board. Seventeen-month old female Tg2576 mice (n=5) received a single dose of vehicle, a positive control antibody at 30 mg/kg or the Abet0380-GL IgG1-TM antibody at 10 or 30 mg/kg by intravenous injection with a dosing vehicle of 25 mM Histidine, 7% Sucrose, 0.02% p80 surfactant, pH 6.0 at 5 mL/kg. At 168 hours after dose, animals were deeply anaesthetized and perfused with room temperature PBS followed by cold (4° C.) phosphate buffered 4% paraformaldehyde (PFA). Animals were then sacrificed by decapitation and brains were dissected and immersions fix in PFA at 4° C. for 72 hours. The fixative was exchanged to PBS containing 0.1% sodium azide and tissues were stored at 4° C. until further processed. […]
Scoring of the staining was carried out in a blinded fashion under 10× optical magnification. […] The intensity of plaque labelling was scored according to a relative intensity scale from 0 (no staining of plaques) up to 4 (intense decoration of plaques).

[1] = test system: Amyloid beta 1-40 peptide; assay: Total Amyloid beta 1-40 peptide in rat brain homogenates (ELISA); assay type: in vivo; details: Sprague-Dawley rats, 0.25-10 mg/kg weekly over 14 days
Experimental: […] Dosing solutions were made just before dosing. Animals were anaesthetized at the time indicated and cerebrospinal fluid (CSF) was aspirated from the cistema magna. CSF samples were centrifuged for 10 minutes at approximately 3000× g at 4° C. within 20 minutes of sampling to remove cells or debris. Samples were then frozen on dry ice and stored at −70° C. for subsequent analysis.
Animals were sacrificed by decapitation, brain tissue was dissected and Amyloid beta peptides were extracted from brain tissue in diethylamine (DEA; Fluka. Sigma. UK; cat: 31729). Briefly, frozen brain tissue was homogenized in 0.2% DEA and 50 mM NaCl (Merck, USA: cat: 1.06404.1000). Brain homogenates were ultracentrifuged at 133,000×g, for 1 hour. Recovered supernatants were neutralized to pH 8.0 with 2 M Tris-HCl (TRIZMA®-hydrochloride; Sigma, UK; cat: 93363) and stored at −70° C. until analysis. Animal experimentations were performed in accordance with relevant guidelines and regulations provided by the Swedish Board of Agriculture. […]
Measurement of total Amyloid beta 1-40 peptide in rat brain homogenates was performed using the mouse Amyloid beta (1-40) colorimetric ELISA kit (Invitrogen, UK; cat: KMB3481). […] To stop the reaction, 100 μl of Stop Solution was added to each well and the plate was read within 2 hours at an absorbance of 450 nm. […]

[2] = test system: human Abeta peptides (Abeta 1-42, Abeta 1-43, Abeta 1-16, Abeta 12-28, Abeta 17-42, Abeta pyro-3-42, Abeta pyro-11-42); assay: HTRF competition binding experiments with panel of Abeta peptides; details: competitor 10 uM down to 0.17 nM; antibody 0.5 nM
Experimental: The specificity of Abet0380-GL IgG1-TM was examined in competition binding experiments. In brief Abet0380-GL IgG1-TM (0.5 nM) was incubated (1 hr at room temperature) with a range of different concentrations (10 uM down to 0.17 nM) of a panel of full length, truncate and pyro human Abeta peptides (Abeta 1-42, Abeta 1-43, Abeta 1-16, Abeta 12-28, Abeta 17-42, Abeta pyro-3-42, or Abeta pyro-11-42).
Following the incubation between Abet0380-GL IgG1-TM and the Abeta peptides N-terminal biotin Abeta 1-42 (1.5 nM) was added followed by a europium cryptate labelled anti-human Fc antibody (0.8 nM) (CisBio Cat. No. 61HFCKLB) and streptavidin-XL^entl (5 nM) (CisBio Cat. No. 611SAXLB). The assay was then incubated for a further 2 hrs at room temperature before reading on an Envision plate reader (PerkinElmer) using a standard homogeneous time resolved fluorescence (HTRF) read protocol. In the absence of competition, the interaction of N-terminal biotin Abeta 1-42 with Abet0380-GL IgG1-TM (in complex with streptavidin-XL^entl and europium cryptate labelled anti-human Fc antibody, respectively) could then be measured via time resolved fluorescence resonance energy transfer (TR-FRET) due to the proximity of the europium cryptate donor and XL^665 acceptor fluorophores. […]

B1: Abet0380-GL IgG1-TM: germlined Abet0380; VH SEQ ID NO: 524, VL SEQ ID NO: 533; human IgG1 triple mutant format (antibody, listed as Homo sapiens, V domains shown)
VH: EVQLLESGGGLVQPGGSLRLSCAASMGNFNYQTMWWVRQAPGKGLEWVSVIGKTNENIAYADSVKGRFTISRDNSKNTLYLQMNSLRAEDTAVYYCAREWMDHSRPYYYYGMDVWGQGTLVTVSS
VL: SYELTQPPSVSVSPGQTASITCSGHNLEDKFASWYQQKPGQSPVLVIYRDDKRPSGIPERFSASNSGHTATLTISGTQAMDEADYYCSSQDTVTRVFGGGTKLTVL
modifications: human IgG1 triple mutant constant region; /note=“Abet0380-GL”
notes: germlined Abet0380; human IgG1 triple mutant format
B1 was tested, and the “in vivo decoration of Amyloid beta plaques or CAA” value (Amyloid beta plaques) was “did not decorate; also recorded: does not show any in vivo plaque decoration”, the “effect on total Amyloid beta 1-40 peptide in brain tissue” value [1] was “unaffected” and the “inhibition of antibody : N-terminal Biotin Abeta 1-42 binding by Abeta 1-16 or Abeta 12-28” value [2] was “No inhibition”.
